# Legend:
# Assay type in all cases: biochemical
# TYK2 = TYK2 (Homo sapiens, UniProt P29597); assay: TR-FRET kinase assay, TYK2; details: Kinase Concentration 4 nM; 50 nM ULight-labeled substrate, 200 micromolar ATP, 2 hours
# Description: (§1) TR-FRET kinase assays are performed under standardized conditions: various individual kinases are incubated with 50 nM of kinase substrate BRB1 labeled with the TR-FRET acceptor dye ULight (PerkinElmer) and 200 micromolar ATP in 10 μL of kinase assay buffer (50 mM HEPES pH7.5, 10 mM MgCl2, 3 mM MnCl2, 1 mM EGTA, 2 mM DTT and 0.01% Tween-20) for 2 hours at room temperature. Reactions are stopped with EDTA, and anti-phospho-tyrosine antibodies (clone PT66) labeled with the TR-FRET europium chelate donor dye are added to a final concentration of 2 nM in a final volume of 20 μL. The TR-FRET signal emitted at 665 nm is read one hour after the addition of antibodies using a TR-FRET plate reader such as the Envision® Multilabel Plate reader (PerkinElmer). The emitted signal at 665 nm is proportional to the extent of peptide phosphorylation, Control reactions indicative of background are performed excluding ATP from the reaction.
# (§2) Assay conditions are identical to those used described for FIG. 1.
# EphA1 = target: T1, EphA1 (Homo sapiens, UniProt P21709); assay: TR-FRET kinase assay, EphA1; details: Kinase Concentration 0.5 nM; 50 nM ULight-labeled substrate, 200 micromolar ATP, 2 hours
# T1 sequence (P21709 26-976): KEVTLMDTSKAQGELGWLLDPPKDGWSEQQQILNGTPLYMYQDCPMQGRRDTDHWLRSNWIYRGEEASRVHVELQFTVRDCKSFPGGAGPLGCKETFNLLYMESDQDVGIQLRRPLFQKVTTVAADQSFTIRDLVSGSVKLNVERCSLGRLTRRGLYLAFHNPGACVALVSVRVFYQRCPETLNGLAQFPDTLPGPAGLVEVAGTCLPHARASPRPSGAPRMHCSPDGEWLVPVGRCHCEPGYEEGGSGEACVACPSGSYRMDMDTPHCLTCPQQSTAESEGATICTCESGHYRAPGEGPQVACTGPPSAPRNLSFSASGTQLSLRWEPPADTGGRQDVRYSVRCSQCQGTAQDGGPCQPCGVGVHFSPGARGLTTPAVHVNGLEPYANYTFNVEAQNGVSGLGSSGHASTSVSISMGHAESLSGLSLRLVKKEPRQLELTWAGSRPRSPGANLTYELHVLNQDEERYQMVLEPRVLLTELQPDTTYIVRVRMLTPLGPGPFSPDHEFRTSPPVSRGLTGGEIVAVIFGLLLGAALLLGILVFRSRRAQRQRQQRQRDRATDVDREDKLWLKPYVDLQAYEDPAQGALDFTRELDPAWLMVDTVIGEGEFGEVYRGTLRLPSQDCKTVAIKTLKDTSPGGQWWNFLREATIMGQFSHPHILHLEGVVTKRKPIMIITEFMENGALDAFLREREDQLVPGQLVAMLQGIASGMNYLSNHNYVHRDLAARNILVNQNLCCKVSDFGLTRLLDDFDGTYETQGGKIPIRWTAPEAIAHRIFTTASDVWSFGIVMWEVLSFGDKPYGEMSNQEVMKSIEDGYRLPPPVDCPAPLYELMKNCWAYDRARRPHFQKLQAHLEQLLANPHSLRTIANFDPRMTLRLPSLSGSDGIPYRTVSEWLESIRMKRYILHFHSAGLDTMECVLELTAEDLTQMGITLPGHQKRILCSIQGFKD
# Description: as §1, §2
# EphA8 = target: T2, EphA8 (Homo sapiens, UniProt P29322); assay: TR-FRET kinase assay, EphA8; details: Kinase Concentration 0.25 nM; 50 nM ULight-labeled substrate, 200 micromolar ATP, 2 hours
# T2 sequence (P29322 28-1005): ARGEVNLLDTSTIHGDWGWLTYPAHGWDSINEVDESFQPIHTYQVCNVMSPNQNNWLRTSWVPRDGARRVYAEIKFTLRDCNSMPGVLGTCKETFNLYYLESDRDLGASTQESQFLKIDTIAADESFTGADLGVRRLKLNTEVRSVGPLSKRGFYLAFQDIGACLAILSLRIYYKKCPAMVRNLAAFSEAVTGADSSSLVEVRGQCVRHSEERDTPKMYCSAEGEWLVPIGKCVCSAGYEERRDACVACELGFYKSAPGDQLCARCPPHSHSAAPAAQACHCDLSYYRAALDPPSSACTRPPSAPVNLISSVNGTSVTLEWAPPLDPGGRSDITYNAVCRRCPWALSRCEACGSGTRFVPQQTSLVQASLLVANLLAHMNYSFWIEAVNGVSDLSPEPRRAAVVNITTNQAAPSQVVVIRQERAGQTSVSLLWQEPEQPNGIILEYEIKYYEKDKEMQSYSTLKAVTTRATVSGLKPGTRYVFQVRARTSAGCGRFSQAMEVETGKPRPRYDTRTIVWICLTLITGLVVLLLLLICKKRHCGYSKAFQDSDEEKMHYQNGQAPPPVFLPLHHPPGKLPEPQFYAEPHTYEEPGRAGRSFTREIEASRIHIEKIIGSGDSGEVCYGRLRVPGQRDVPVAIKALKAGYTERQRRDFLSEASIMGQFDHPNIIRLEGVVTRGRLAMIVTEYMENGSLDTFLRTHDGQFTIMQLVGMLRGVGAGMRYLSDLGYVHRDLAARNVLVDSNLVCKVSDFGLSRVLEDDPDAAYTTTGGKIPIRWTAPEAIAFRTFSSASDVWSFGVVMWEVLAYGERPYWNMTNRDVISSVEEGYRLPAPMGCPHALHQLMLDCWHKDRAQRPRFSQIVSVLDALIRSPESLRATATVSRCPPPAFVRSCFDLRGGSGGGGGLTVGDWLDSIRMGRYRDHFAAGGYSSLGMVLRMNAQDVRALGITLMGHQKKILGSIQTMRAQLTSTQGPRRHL
# Description: as §1, §2
# TRKA (NTRK1) = TRKA (NTRK1) (Homo sapiens, UniProt P04629); assay: TR-FRET kinase assay, TRKA (NTRK1); details: Kinase Concentration 0.5 nM; 50 nM ULight-labeled substrate, 200 micromolar ATP, 2 hours
# TRKA (NTRK1), sequence (P04629 33-796, species assumed): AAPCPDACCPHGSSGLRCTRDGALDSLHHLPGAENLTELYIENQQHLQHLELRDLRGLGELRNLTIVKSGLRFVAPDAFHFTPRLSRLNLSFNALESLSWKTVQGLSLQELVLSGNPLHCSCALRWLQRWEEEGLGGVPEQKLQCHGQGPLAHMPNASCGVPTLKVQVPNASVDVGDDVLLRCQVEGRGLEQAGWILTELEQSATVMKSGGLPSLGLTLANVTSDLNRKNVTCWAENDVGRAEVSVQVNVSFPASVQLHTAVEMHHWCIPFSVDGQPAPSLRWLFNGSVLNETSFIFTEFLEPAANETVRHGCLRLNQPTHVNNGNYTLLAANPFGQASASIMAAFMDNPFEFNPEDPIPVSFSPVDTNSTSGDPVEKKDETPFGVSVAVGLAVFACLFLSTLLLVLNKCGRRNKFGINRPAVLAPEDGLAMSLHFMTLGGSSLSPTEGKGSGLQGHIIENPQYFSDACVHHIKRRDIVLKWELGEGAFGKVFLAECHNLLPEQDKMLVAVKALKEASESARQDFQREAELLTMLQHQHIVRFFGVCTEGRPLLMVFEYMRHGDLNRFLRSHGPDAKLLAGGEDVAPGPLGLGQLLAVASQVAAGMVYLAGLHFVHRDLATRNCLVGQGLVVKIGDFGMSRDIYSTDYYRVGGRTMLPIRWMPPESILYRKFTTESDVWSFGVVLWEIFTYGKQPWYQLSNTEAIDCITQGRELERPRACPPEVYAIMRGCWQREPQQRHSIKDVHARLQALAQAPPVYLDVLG
# Description: as §1, §2
# TYK2, sequence (P29597 whole entry, species assumed): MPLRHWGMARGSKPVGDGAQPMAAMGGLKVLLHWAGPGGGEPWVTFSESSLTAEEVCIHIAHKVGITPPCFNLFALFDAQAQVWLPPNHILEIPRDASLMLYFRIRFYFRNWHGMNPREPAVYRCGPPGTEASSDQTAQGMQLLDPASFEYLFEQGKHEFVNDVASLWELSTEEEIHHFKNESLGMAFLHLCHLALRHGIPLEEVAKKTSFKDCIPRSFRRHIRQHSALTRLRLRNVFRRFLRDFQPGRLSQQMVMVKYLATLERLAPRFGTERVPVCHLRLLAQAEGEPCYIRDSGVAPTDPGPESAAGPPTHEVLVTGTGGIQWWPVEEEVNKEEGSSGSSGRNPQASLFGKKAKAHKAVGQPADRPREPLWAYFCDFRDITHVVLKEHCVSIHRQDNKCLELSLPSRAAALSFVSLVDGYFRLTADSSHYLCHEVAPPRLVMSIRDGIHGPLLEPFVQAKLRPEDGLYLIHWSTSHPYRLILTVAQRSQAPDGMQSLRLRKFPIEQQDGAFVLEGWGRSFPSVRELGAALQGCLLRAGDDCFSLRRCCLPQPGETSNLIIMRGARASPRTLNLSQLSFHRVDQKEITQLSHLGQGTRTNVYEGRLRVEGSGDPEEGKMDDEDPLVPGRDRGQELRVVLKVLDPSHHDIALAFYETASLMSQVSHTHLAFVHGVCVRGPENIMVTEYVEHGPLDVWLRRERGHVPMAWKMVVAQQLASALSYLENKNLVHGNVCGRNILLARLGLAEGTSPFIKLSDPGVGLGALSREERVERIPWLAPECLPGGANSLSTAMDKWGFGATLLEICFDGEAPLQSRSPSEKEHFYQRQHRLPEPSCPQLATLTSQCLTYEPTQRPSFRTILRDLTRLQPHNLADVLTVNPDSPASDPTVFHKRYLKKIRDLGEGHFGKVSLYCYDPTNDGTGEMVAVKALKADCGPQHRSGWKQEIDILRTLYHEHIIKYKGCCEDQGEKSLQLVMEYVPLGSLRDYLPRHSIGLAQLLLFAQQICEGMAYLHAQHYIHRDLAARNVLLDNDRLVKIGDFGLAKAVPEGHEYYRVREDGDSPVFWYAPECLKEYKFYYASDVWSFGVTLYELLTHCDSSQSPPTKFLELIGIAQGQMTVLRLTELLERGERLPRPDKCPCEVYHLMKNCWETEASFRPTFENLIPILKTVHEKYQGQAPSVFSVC
sequence,measurement,setting,value
C AYE AYE AYE K EYA EYA EYA K AYA EYE R (CAYEAYEAYEKEYAEYAEYAKAYAEYER; tyrosine kinase substrate peptide) [BRB1],Signal to Noise ratio with BRB1 Peptide,TYK2,7.3
same,Signal to Noise ratio with BRB1 Peptide,EphA1,10.8
same,Signal to Noise ratio with BRB1 Peptide,EphA8,32.3
same,Signal to Noise ratio with BRB1 Peptide,TRKA (NTRK1),23.2

# Reference: patent US8242083B2, “Kinase substrates” (PerkinElmer Health Sciences, Inc., priority 2008, dated 2012)
